Reference: US20200347144A1 (SHANGHAI HYAMAB BIOTECH, published 2020)
Numbering of substitutions follows the chain as printed.

B1: 258F5A8 (antibody, V domains shown)
VH: QVQLVESGGGVVQPGRSLRLSCAASGFTFSSYGMHWVRQAPGKGLEWVAVIWYDGSNKYYADSVKGRFNISRDNSKNTLYLQMNSLRAEDTAVYYCARGPYLYSSGWYDYYYYGMDVWGQGTTVTVSS
VL: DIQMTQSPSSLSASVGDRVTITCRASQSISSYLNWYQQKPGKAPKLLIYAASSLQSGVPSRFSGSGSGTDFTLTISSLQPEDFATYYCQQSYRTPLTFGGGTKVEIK
B2: 259G10E11 (antibody, V domains shown)
VH: B1 VH with N69T
VL: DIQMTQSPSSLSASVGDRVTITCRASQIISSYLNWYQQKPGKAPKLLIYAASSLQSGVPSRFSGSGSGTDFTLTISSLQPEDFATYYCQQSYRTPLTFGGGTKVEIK
B3: 119B6G5 (antibody, V domains shown)
VH: EVQLLESGGGLVQPGGSLRLSCAASGFTFSNYAMSWVRQGPGKGLEWVSTIIGSGDSTYYTDSVKGRFTISRDNSKNTLFLQMNSLRAEDTAVYYCARDKSGWYYFDYWGQGTLVTVSS
VL: DIQMTQSPSTLSASVGDRVTITCRASQSISNWLAWYQQKPGKAPKLLIYKASSLESGVPSRFSGSGSGTEFTLTISSLQPDDFATYYCQQYNDYFPITFGQGTRLEIK
B4: 113F6C6 (antibody, V domains shown)
VH: QVQLVESGGGVVQPGRSLRLSCAASGLTFSSYGMHWVRQAPGKGLEWVAVIWYDGSNKYYADSVKGRFTISRDNSKNTLYLQMNSLRAEDTAVYYCAREEVLWFGELSYNYYYGMDVWGQGTTVTVSS
VL: DIQMTQSPSSLSASVGDRVTITCRASQGISNYLAWYQQKPGKVPKLLIYAASTLQSGVPSRFSGSGSGTDFTLTISSLQPEDVATYYCQKYNSVPLTFGGGTKVEIK
notes: also called 4-1BB fully human antibody 113F6C6; 113F6F6
B5: 11H10C9 (antibody, V domains shown)
VH: QVQLVESGGGVVQPGRSLRLSCAASGFTFSSYAMHWVRQAPGKGLEWVAIIWYDGSNQYYADSVKGRFTISRDNSMNTLYLQMNSLRAEDTAVYYCARVEQWLVSYFDFWGQGTLVTVSS
VL: EIVMTQSPATLSVSPGERATLSCRASQSVSSNLAWYQQKPGQVPRLLIYGASTRATGIPARFSGSGSGTEFTLTISSLQSEDFAVYYCQQYNNWPTFGGGTKVEIK
B6: 15G10D4 (antibody, V domains shown)
VH: B5 VH with T28S, M76K, E100K, F109Y
VL: B5 VL with T72S, T74I
B7: 57B3D10 (antibody, V domains shown)
VH: QVQLQESGPGLVKPSETLSLTCTVSGGSISSYYWSWIRQPPGKGLEWIGYIYYSGSTNYNPSLKSRVTISVDTSKSQFSLKLTSVTAADTAVYYCAKDSDYYGSGSYSYWYFDLWGRGTLVTVSS
VL: EIVMTQSPATLSVSPGERATLSCRASQSVSSNLAWYQQKPGQAPRLLIYGASTRAPGIPARFSGSGSGTEFTLTISSLQSEDFAVYYCQQYNNWPLTFGGGTKVEIK
notes: also called 4-1BB fully human antibody 57B3D10

Key:
[1] = target: T1, human 4-1BB, full length, on transfected cells (human, UniProt Q07011 24-255); assay: FACS, CHOK1-h4-1BB cells; Ab 2 ug/ml
T1 construct: whole, on cells; also called CHOK1-h4-1BB
Excerpt: (§1) The pIRES plasmid carrying the full-length gene of monkey-derived […] (the preparation method is the same as the preparation method of the pCpC vector carrying the human-derived IgG Fc fragment (hFc) in “Preparation of immunogen A” of the step (1) in Example 1, in which the database accession number of the amino acid sequence of the extracellular region of monkey 4-1BB protein (Phe19-Thr239) is G7PSE7) was transfected into CHOK1 cell line to obtain CHOK1 stable transfected cell line containing monkey 4-1BB (herein referred to as CHOK1-c4-1BB stable cell line). The CHOK1-h4-1BB stable cell line and the CHOK1-c4-1BB stable cell line were expanded and cultivated to 90% confluence in T-75 cell culture flasks. The medium was exhausted, and washed twice with HBSS buffer (Hanks Balanced Salt Solution, purchased from Invitrogen), and then the cells were treated and collected with enzyme-free cell dissociation solution (Versene solution, purchased from Life Technology). The cells were washed twice with HBSS buffer, and after cell counting, the cells were diluted with HBSS buffer to 2×10⁶ cells per ml, and 1% goat serum blocking solution was added, the percentage being the mass percentage. It was incubated on ice for 30 minutes, and then washed twice with HBSS buffer by centrifugation. The collected cells were suspended in FACS buffer (HBSS containing 1% BSA, the percentage was the mass percentage) to 2×10⁶ cells/mL, and 100 μl per well was added to a 96-well FACS reaction plate. The purified 4-1BB antibody test sample obtained in Example 2 was added, 100 microliters per well and incubated on ice for 2 hours. […] It was washed three times with FACS buffer by centrifugation, and 100 μl of fixative [4% (v/v) paraformaldehyde] per well was added to suspend cells, and washed twice with FACS buffer after 10 minutes by centrifugation. The cells were suspended with 100 microliters of FACS buffer, and the results were detected and analyzed with FACS (FACS Calibur, purchased from BD).

[2] = target: T2, monkey 4-1BB on CHOK1 cells (monkey); assay: FACS, CHOK1-c4-1BB cells; Ab 2 ug/ml
T2 construct: whole, on cells; also called CHOK1-c4-1BB
Excerpt: as §1

[3] = target: T1, human 4-1BB, full length, on …; assay: FACS, CHOK1-h4-1BB cells; Ab 10 ug/ml
Excerpt: as §1

[4] = target: T2, monkey 4-1BB on CHOK1 cells; assay: FACS, CHOK1-c4-1BB cells; Ab 0.4 ug/ml
Excerpt: as §1

[5] = target: T2, monkey 4-1BB on CHOK1 cells; assay: FACS, CHOK1-c4-1BB cells; Ab 0.08 ug/ml
Excerpt: as §1

[6] = target: T2, monkey 4-1BB on CHOK1 cells; assay: FACS, CHOK1-c4-1BB cells; Ab 0.016 ug/ml
Excerpt: as §1

[7] = target: T1, human 4-1BB, full length, on …; assay: FACS, CHOK1-h4-1BB cells; Ab 0.0032 ug/ml
Excerpt: as §1

[8] = target: T2, monkey 4-1BB on CHOK1 cells; assay: FACS, CHOK1-c4-1BB cells; Ab 0.0032 ug/ml
Excerpt: as §1

[9] = target: T3, hFc-tagged human 4-1BB extracellular domain protein (4-1BB-hFc) (human, UniProt Q07011 24-186, limits assumed); assay: ELISA, coated human 4-1BB-hFc; Ab 10 ug/ml
T3 construct: also called immunogen A; 4-1BB^ECD-hFc; not shown: human IgG Fc fragment (hFc) of the pCpC vector
Procedure: (§2) The purified immunogen A (4-1BB-hFc), monkey 4-1BB-his, and mouse 4-1BB-his obtained in Example 1 [for the preparation method, see step 1 of Example 1, preparation of immunogen A], of which the extracellular domain of monkey-derived 4-1BB protein (purchased from ACRO biosystems), the extracellular domain of mouse 4-1BB protein (purchased from sino biological) or other immune detection point proteins respectively were diluted with PBS to a final concentration of 1.0 μg/mL, then added with […] per well to 96-well ELISA plate. It was sealed with plastic film and incubated at 4° C. overnight. The next day, the plate was washed twice with the plate-washing solution [PBS containing 0.01% (v/v) Tween20] and blocking solution [PBS containing 0.01% (v/v) Tween 20 and 1% (v/v) BSA] was added and blocked at room temperature for 2 hours. The blocking solution was discarded and 100 μl of the purified 4-1BB antibody obtained in Example 2 was added per well. After incubated at 37° C. for 2 hours, the plate was washed 3 times with a plate-washing solution [PBS containing 0.01% (v/v) Tween20]. A secondary antibody (purchased from Sigma) labeled with HRP (horseradish peroxidase) was added, and after incubated at 37° C. for 2 hours, the plate was washed 3 times with a plate-washing solution [PBS containing 0.01% (v/v) Tween20]. 100 μl of TMB substrate was added per well. After incubated for 30 minutes at room temperature, 100 μl of stop buffer (1.0N HCl) was added per well. The A450 nm values were read using an ELISA plate reader (SpectraMax 384plus, Molecular Device).

[10] = target: T2, monkey 4-1BB on CHOK1 cells; assay: FACS, CHOK1-c4-1BB cells; Ab 0.00013 ug/ml
Excerpt: as §1

[11] = target: T4, monkey 4-1BB-his protein (monkey); assay: ELISA, coated monkey 4-1BB-his; Ab 10 ug/ml
T4 construct: extracellular domain; Bought protein; also called extracellular domain of monkey-derived 4-1BB protein
Procedure: as §2

[12] = target: T3, hFc-tagged human 4-1BB extracellular …; assay: ELISA, coated human 4-1BB-hFc; Ab 0.016 ug/ml
Procedure: as §2

[13] = target: T4, monkey 4-1BB-his protein; assay: ELISA, coated monkey 4-1BB-his; Ab 0.08 ug/ml
Procedure: as §2

[14] = target: T3, hFc-tagged human 4-1BB extracellular …; assay: ELISA, coated human 4-1BB-hFc; Ab 0.0006 ug/ml
Procedure: as §2

[15] = target: T1, human 4-1BB, full length, on …; assay: FACS on CHOK1-h4-1BB cells, Alexa 488 secondary antibody, average fluorescence intensity
Excerpt: as §1

T1 sequence (Q07011 24-255): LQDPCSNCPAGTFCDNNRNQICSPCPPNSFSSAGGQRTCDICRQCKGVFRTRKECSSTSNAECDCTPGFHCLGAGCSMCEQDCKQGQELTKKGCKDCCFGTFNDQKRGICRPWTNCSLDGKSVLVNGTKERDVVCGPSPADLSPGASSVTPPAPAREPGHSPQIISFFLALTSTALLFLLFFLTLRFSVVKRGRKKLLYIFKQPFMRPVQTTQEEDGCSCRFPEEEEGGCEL

Row | Binder | average fluorescence intensity [1] [MFI] | average fluorescence intensity [2] [MFI] | average fluorescence intensity [3] [MFI] | average fluorescence intensity [4] [MFI] | average fluorescence intensity [5] [MFI] | average fluorescence intensity [6] [MFI] | average fluorescence intensity [7] [MFI] | average fluorescence intensity [8] [MFI] | OD450 nm [9] [OD450 nm] | average fluorescence intensity [10] [MFI] | OD450 nm [11] [OD450 nm] | OD450 nm [12] [OD450 nm] | OD450 nm [13] [OD450 nm] | OD450 nm [14] [OD450 nm] | EC50 (read off the curve) [15] [µg/mL]
1 | B1 | 766 | 112 | 835 | 71.4 | 26.6 | 9.9 | 21.1 | 4.5 | 2.68 | 2.5 | 1.98 | 1.06 | 0.55 | 0.09 | ~0.2
2 | B2 | 803 | 107 | 827 | 64.3 | 25.4 | 9.3 | 19.4 | 4.3 | 2.8 | 2.5 | 1.83 | 1.29 | 0.46 | 0.11 | ~0.2
3 | B3 | 1080 | 1350 | 1080 | 944 | 303 | 77.9 | 17.8 | 20.7 | 2.78 | 3.2 | 2.48 | 1.25 | 2.15 | 0.11 | –
4 | B4 | 477 | 438 | 405 | 357 | 182 | 51.5 | 13.7 | 15.1 | – | 2.9 | 2.36 | – | 1.58 | – | ~0.1
5 | B5 | 520 | 576 | 498 | 298 | 82.6 | 24.7 | 18.3 | 10.4 | 3.55 | 3 | – | 1.55 | – | 0.19 | ~0.1
6 | B6 | 521 | 646 | 532 | 359 | 156 | 37.3 | 28.8 | 12 | 3.53 | 3.3 | – | 1.72 | – | 0.19 | ~0.05
7 | B7 | 555 | 567 | 538 | 549 | 166 | 63.5 | 42.7 | 15 | – | 3.3 | 2.42 | – | 2.03 | – | ~0.05
